The Kd is the concentration at which binding is half-saturated. Read a high Kd as a looser complex.

This data set deals with IBV H120 whole virus (target protein not identified) (Infectious bronchitis virus, live vaccine strain H120). Nature of the data set: direct ELAA.
Take “CACGTCTCTCTATTCGCTCCCTTCGCTAATTGTTCTCTCC [Apt_IBV02]”: the Kd was found to be 58.2 nM.
With “CAGACTTTGTTCAGCTCCTCGACTCTTCATTCCCTCCCTT [Apt_IBV03]”, the Kd was determined as 109 nM.
“CCAGTATCATCCCTATCGTAGTCCTCAACAACCCCCTACA [Apt_IBV04]” yielded a Kd of 99.9 nM.
Turning to “CCCCAATCACAGTTAATCCTCGTTCCTATATCTCCCACAC [Apt_IBV01]”, the Kd stood at 99.2 nM.
In the case of “GACTTCCCTCTTTGTGTGTCATTCGGTGTTCTCGCTTTTG [Apt_IBV05]” it was 59.4 nM.

(Values after PMC9927260.)
